# Assay results reported in IntAct's records for PubMed 21765415.
# B1: Inhibitor of nuclear factor kappa-B kinase subunit alpha (Homo sapiens), O15111 (parent)
# chain: MERPPGLRPGAGGPWEMRERLGTGGFGNVCLYQHRELDLKIAIKSCRLELSTKNRERWCHEIQIMKKLNHANVVKACDVPEELNILIHDVPLLAMEYCSGGDLRKLLNKPENCCGLKESQILSLLSDIGSGIRYLHENKIIHRDLKPENIVLQDVGGKIIHKIIDLGYAKDVDQGSLCTSFVGTLQYLAPELFENKPYTATVDYWSFGTMVFECIAGYRPFLHHLQPFTWHEKIKKKDPKCIFACEEMSGEVRFSSHLPQPNSLCSLVVEPMENWLQLMLNWDPQQRGGPVDLTLKQPRCFVLMDHILNLKIVHILNMTSAKIISFLLPPDESLHSLQSRIERETGINTGSQELLSETGISLDPRKPASQCVLDGVRGCDSYMVYLFDKSKTVYEGPFASRSLSDCVNYIVQDSKIQLPIIQLRKVWAEAVHYVSGLKEDYSRLFQGQRAAMLSLLRYNANLTKMKNTLISASQQLKAKLEFFHKSIQLDLERYSEQMTYGISSEKMLKAWKEMEEKAIHYAEVGVIGYLEDQIMSLHAEIMELQKSPYGRRQGDLMESLEQRAIDLYKQLKHRPSDHSYSDSTEMVKIIVHTVQSQDRVLKELFGHLSKLLGCKQKIIDLLPKVEVALSNIKEADNTVMFMQGKRQKEIWHLLKIACTQSSARSLVGSSLEGAVTPQTSAWLPPTSAEHDHSLSCVVTPQDGETSAQMIEENLNCLGHLSTIIHEANEEQGNSMMNLDWSWLTE
# Variants of: B1
# Conditions: with taxb1_human TAX1BP1, Q86VP1
# Chain of taxb1_human TAX1BP1, Q86VP1 (Q86VP1 whole entry): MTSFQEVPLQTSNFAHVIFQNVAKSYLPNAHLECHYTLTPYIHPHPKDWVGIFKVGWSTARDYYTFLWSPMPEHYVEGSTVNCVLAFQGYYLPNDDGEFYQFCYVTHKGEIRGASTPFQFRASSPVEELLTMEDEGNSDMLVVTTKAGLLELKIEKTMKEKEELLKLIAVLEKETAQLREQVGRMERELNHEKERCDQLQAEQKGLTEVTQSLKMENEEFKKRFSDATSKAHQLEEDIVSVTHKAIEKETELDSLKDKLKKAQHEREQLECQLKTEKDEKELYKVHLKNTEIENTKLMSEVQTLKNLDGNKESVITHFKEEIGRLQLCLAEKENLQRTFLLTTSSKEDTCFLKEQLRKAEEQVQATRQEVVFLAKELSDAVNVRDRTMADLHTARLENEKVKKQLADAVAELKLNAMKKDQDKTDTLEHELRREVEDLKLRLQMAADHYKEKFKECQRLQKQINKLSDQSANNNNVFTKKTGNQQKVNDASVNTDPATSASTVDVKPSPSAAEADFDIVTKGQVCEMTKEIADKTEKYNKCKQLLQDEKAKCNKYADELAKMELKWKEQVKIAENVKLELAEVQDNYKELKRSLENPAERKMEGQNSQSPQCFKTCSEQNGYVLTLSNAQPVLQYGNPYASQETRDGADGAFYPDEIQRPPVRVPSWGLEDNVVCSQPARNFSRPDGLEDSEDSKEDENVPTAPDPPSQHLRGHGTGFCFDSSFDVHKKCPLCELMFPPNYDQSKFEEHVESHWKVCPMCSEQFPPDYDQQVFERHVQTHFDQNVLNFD
row,Variant,effect of a mutation on the interaction
1,K44M,disrupting interaction
